# Assays:
# [1] = system: PRC2; experiment: PRC2 HKMT activity with Jarid2 fragments (aa 109–450), recombinant or native chromatin; type: biochemical; conditions: native chromatin; equimolar amounts of Jarid2 fragments aa 109–450; n = 3
# Text: Figure 5 Jarid2 Methylation Regulates PRC2 Enzymatic Activity Depending on Chromatin Environment (A) HKMT assay performed with PRC2-Ezh2 on recombinant oligonucleosomes in the presence of peptides mimicking either Jarid2-K116me2 and me3 or H3K27me3. (B) HKMT assay as in (A) performed with PRC2-Ezh2 reconstituted with either Eed WT or F97A. (C) Table indicating the sequences of the peptides and the relative dissociation constant Kd (μM) for ΔEed binding measured by ITC. (D) Ribbons representation of ΔEed-Jarid2-K116me3 and ΔEed-H3K27me3 complexes. Eed is in gray; Jarid2 peptide is in yellow while H3 peptide is in purple, both in stick representation. Eed aromatic amino acids are in stick and cyan color. Top: top views. Bottom: zoom-in of side views. (E) HKMT assay as in (A) in presence of peptides Jarid2-K116me3 WT or F117A. (F) Left: representation of the chimeric proteins used in the HKMT assay. The red cross indicates the point mutations introduced in the protein to perform native chemical ligation. […] Right: quantification of PRC2-HKMT activity in the presence of the three Jarid2 fragments (mean ± SD, n = 3). […]
# The N-terminal region of Jarid2 comprises distinct domains for both PRC2 and chromatin interactions ([Son et al., 2013]). […] We then monitored PRC2 enzymatic activity on recombinant or native nucleosomes either alone or in the presence of equimolar amounts of Jarid2 fragments (Figure 5F). […]
# [2] = system: PRC2-Ezh2; experiment: HKMT assay, PRC2-Ezh2 with Jarid2 fragments, titration of H3K27me3 octamers in recombinant chromatin; type: biochemical; conditions: recombinant chromatin with increasing amount of H3K27me3 octamers
# Text: Figure 5 Jarid2 Methylation Regulates PRC2 Enzymatic Activity Depending on Chromatin Environment (A) HKMT assay performed with PRC2-Ezh2 on recombinant oligonucleosomes in the presence of peptides mimicking either Jarid2-K116me2 and me3 or H3K27me3. (B) HKMT assay as in (A) performed with PRC2-Ezh2 reconstituted with either Eed WT or F97A. (C) Table indicating the sequences of the peptides and the relative dissociation constant Kd (μM) for ΔEed binding measured by ITC. (D) Ribbons representation of ΔEed-Jarid2-K116me3 and ΔEed-H3K27me3 complexes. Eed is in gray; Jarid2 peptide is in yellow while H3 peptide is in purple, both in stick representation. Eed aromatic amino acids are in stick and cyan color. Top: top views. Bottom: zoom-in of side views. (E) HKMT assay as in (A) in presence of peptides Jarid2-K116me3 WT or F117A. (F) Left: representation of the chimeric proteins used in the HKMT assay. The red cross indicates the point mutations introduced in the protein to perform native chemical ligation. Red circle indicates K116me3. Right: quantification of PRC2-HKMT activity in the presence of the three Jarid2 fragments (mean ± SD, n = 3). […]
# To evaluate a potential competition between H3K27me3 and Jarid2-K116me3, we reconstituted chromatin in presence of increasing ratios of octamers fully methylated on K27 and monitored PRC2 activity in presence of Jarid2 fragments (Figure 5G). […]
molecule,measurement,setting,value
"fully methylated Jarid2 fragment: peptide containing aa 109–123 (K116me3) coupled through native chemical ligation with the aa 124–450 fragment (protein, UniProt Q92833 109-450, looked up, fragment, K116 trimethyl, peptide containing aa 109–123 (K116me3) coupled through native chemical ligation with the aa 124–450 fragment) PRLQAQRKFAQSQPNSPSTTPVKIVEPLLPPPATQISDLSKRKPKTEDFLTFLCLRGSPALPNSMVYFGSSQDEEEVEEEDDETEDVKTATNNASSSCQSTPRKGKTHKHVHNGHVFNGSSRSTREKEPVQKHKSKEATPAKEKHSDHRADSRREQASANHPAAAPSTGSSAKGLAATHHHPPLHRSAQDLRKQVSKVNGVTRMSSLGAGVTSAKKMREVRPSPSKTVKYTATVTKGAVTYTKAKRELVKDTKPNHHKPSSAVNHTISGKTESSNAKTRKQVLSLGGASKSTGPAVNGLKVSGRLNPKSCTKEVGGRQLREGLQLREGLRNSKRRLEEAHQA","stimulation of PRC2 enzymatic activity relative to K116A or K116R fragments, result in words",[1],this stimulation was lost
same,"effect of H3K27me3 titration on Jarid2-mediated stimulation of PRC2, result in words",[2],no effect on the stimulation of PRC2 mediated by Jarid2
